Assay [1] concerns the target Flag-Kr-h1^S154D (Locusta migratoria).
Assay [2] shares this target. This is another data set of the same source.
In assay [3] the target is Flag-Kr-h1 (Krüppel-homolog 1 of Locusta migratoria, wildtype, methoprene-exposed) (Locusta migratoria).

“Flag-CBP (CREB-binding protein of Locusta migratoria) (natural protein)” gave an RL36 reporter activity (dual luciferase, pGL4.10-4×RL36 -1647 to -1632) in S2 cells, co-expression of Flag-CBP and Flag-Kr-h1^S154D (fold increase) in assay [1] of 1.7. As to “Flag-CtBP (C-terminal binding protein of Locusta migratoria) (natural protein)”, the E93 reporter activity (dual luciferase, pGL4.10-4×E93 -623 to -606) in S2 cells, co-expression of Flag-CtBP and Flag-Kr-h1^S154D in assay [2] is 50 % reduction. In assay [3], this substance yielded an E93 reporter activity (dual luciferase, pGL4.10-4×E93 -623 to -606) in S2 cells with 10 uM methoprene, co-expression of Flag-CtBP and Flag-Kr-h1 of 47 % reduction.
